Results published in PMC10120574 (Biochemistry, 2022).

Legend:
Nterm1 = Nterm1 (UniProt position 2, ----MPLLKFD); test: NMR; details: not stated (presumably free enzyme); cited from earlier work
437 = test: UV ketonization assay, decay of enol at […] nm; assay type: biochemical, Calothrix sp. PCC 6303; details: read-out: 437 / Km; 10 mM Na2HPO4, pH 8.3, 22 °C; 5-75 μM substrate

Row | Km 437 [µM] | Compound | pKa (Nterm1)
1 | – | Malonate semialdehyde decarboxylase (Pp MSAD) (Pseudomonas pavonaceae 170) | ~9.2
2 | 34 ± 12 | O=C(O)C=CC=C(O)C(=O)O [2-HM, 2-Hydroxymuconate] | –
